Kd data for 1 substance are collected here from paper PMC4163903.

The test system of the series is ABD-B homeodomain (ABD-B HD) (Drosophila). Put plainly: EMSA.

As usually defined, the Kd is the concentration at which binding is half-saturated. In the case of abd-A probe, the Kd stood at 5.48 nM.
